Data on one molecule can be found in article PMC3357421, “Conserved Orb6 Phosphorylation Sites Are Essential for Polarized Cell Growth in Schizosaccharomyces pombe” (PLoS ONE, 2012).

The target in the test is T1, His6-HA-Nak1 (S. pombe, UniProt O75011 1-652).
T1 construct: Nak1, Ser/Thr kinase of fission yeast (Schizosaccharomyces pombe); HA-Nak1 inserted into pET33b; also called pET33b-His6-HA-Nak1; source: E. coli BL21, purified (NiNTA agarose)
T1 sequence (looked up): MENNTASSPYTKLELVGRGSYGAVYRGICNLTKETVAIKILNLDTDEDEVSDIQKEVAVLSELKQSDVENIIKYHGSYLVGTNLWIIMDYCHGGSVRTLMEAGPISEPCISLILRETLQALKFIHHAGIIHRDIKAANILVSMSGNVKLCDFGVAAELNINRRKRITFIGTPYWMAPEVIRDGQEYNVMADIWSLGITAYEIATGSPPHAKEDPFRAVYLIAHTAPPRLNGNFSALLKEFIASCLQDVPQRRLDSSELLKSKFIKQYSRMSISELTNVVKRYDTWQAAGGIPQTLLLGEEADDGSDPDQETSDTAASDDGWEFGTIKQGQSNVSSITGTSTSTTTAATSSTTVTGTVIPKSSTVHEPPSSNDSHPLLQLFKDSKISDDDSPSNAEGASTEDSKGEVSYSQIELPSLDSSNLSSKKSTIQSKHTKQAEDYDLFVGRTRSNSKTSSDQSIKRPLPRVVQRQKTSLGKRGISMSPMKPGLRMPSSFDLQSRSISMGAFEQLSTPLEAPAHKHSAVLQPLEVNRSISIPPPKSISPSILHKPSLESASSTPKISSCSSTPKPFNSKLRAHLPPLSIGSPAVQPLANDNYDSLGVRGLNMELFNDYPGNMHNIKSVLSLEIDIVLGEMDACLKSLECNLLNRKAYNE
In words: pull-down; GST or GST-Orb6 bound to Glutathione Sepharose 4B beads incubated with His6-HA-Nak1 for 2 h; washed 3 times with 150 mM NaCl, 1 mM DTT, phosphate pH 7.3; western blot with anti-HA (12CA5). The settings on record: both partners purified.

B1: GST-Orb6 (enzyme, S. pombe, UniProt O13310 1-469, looked up)
chain: MDKNDYLHFERNPSLFPKSTLDKVQKTKKYIEHYYKVAVDHAVERNQRRINLEQRLATERGSEERKNRQLRASGEKESQFLRFRRTRLSLEDFSTIKVIGKGAFGEVRLVQKLDTGKIYAMKSLLKTEMFKRDQLAHVKAERDLLVESDSPWVVSLYYAFQDSLYLYLIMEFLPGGDLMTMLINYDTFSEDVTRFYMAECVLAIADVHRMGYIHRDIKPDNILIDRDGHIKLSDFGLSTGFYKQDQSASYMKPRTGNTVKRGQMVDAIWLTMSSKDKMATWKKNRRVMAYSTVGTPDYIAPEIFLQQGYGQDCDWWSLGAIMFECLIGWPPFCSENSHETYRKIINWRETLTFPNDIHLSIEARDLMDRLMTDSEHRLGRGGAIEIMQHPFFTGIDWDHIRETAAPFIPNLKSITDTHYFPVDELEQVPEQPVTQQPASVDPQTLEQTNLAFLGYTYKKFNYLTMKGAL
notes: Orb6, Ndr-related Ser/Thr kinase of fission yeast (Schizosaccharomyces pombe); PCR-amplified cDNA fragment encoding Orb6 in pGEX-5X-1 (a pGEX-6p-1 construct was also made); also called pGEX-5X-1-Orb6; source: E. coli BL21, purified (Glutathione Sepharose 4B)
For the molecule B1, the binding result is on record as “binds”.
